From PMC6978347 (2020)

Target: T1, MEKK3^43–127 (MEKK3–PB1) (UniProt Q99759 43-127)
T1 chain: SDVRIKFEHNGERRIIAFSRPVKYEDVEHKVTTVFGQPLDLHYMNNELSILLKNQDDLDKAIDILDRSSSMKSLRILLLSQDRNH
Assay: ITC

Kd: 13.3 nM
B1: NBR1^1–85 (human NBR1–PB1) (domain or fragment)
chain: MEPQVTLNVTFKNEIQSFLVSDPENTTWADIEAMVKVSFDLNTIQIKYLDEENEEVSINSQGEYEEALKMAVKQGNQLQMQVHEG
